In PMC6122969:

These binders were tested against HLA-A*02:01 on T2 cells (human (endogenous in T2)) (assay: flow cytometry on cells).

time for which complexes with HLA-A*02:01 lasted | Binder
> 4 h | SVLWLGALGL [p35 peptide … from C20orf141]
> 4 h | VIIKPLVWV [p55 peptide … from APCS]

Further lines, the binder ahead of its results:

Binder | time for which complexes with HLA-A*02:01 lasted
FLGPWPAAS [p14 peptide … from the LRPAP1 signal peptide] | > 4 h
LTLLGTLWGA [p34 peptide … from PCDHGA6] | > 4 h
